1 molecule from patent US20260275288A1 (University of Texas, published 2026) can be followed below.

Bounds are passed on as bounds.

For test [1], the target named is T1, non-transduced (NT) cord blood derived NK cells (endogenous wild type CD16; no CD3/TCR) (human, UniProt P08637 17-254).
T1 construct: whole, on cells; A control cell, not a single protein; for the CD3 engagers the cells are the control without CD3; also called NT NK cells; NT NK
Put plainly: flow cytometry; 1 h, 37 °C, complete media, washed (FIGS. 38C-38D). (Flow cytometry measures light scatter and fluorescence of single cells or particles in a stream.)

Test [2] addresses T2, TCR/FcR #2 CD16 extracellular domain (Fc binding domain) comprising polypeptide: WT high affinity CD16 … (human, UniProt P08637 17-254).
T2 construct: these cells also carry endogenous CD16; also called TCR/FcR #2 transduced NK cells; uTNK15 and TCR/FcR #2 transduced NK cells
Described as above.

T1 sequence (P08637 17-254): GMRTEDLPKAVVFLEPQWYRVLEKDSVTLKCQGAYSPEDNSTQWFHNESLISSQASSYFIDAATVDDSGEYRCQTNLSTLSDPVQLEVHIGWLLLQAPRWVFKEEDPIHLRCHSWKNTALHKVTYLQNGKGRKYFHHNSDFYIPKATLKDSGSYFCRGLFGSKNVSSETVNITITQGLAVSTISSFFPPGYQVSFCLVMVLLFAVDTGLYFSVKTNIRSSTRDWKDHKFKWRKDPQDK
T2 sequence (P08637 17-254 F176V limits assumed, form in doubt): as the sequence (P08637 17-254) above, with F160V counted along it

B1: Tafasitamab (antibody)
chain 1: EVQLVESGGGLVKPGGSLKLSCAASGYTFTSYVMHWVRQAPGKGLEWIGYINPYNDGTKYNEKFQGRVTISSDKSISTAYMELSSLRSEDTAMYYCARGTYYYGTRVFDYWGQGTLVTVSSASTKGPSVFPLAPSSKSTSGGTAALGCLVKDYFPEPVTVSWNSGALTSGVHTFPAVLQSSGLYSLSSVVTVPSSSLGTQTYICNVNHKPSNTKVDKKVEPKSCDKTHTCPPCPAPELLGGPDVFLFPPKPKDTLMISRTPEVTCVVVDVSHEDPEVQFNWYVDGVEVHNAKTKPREEQFNSTFRVVSVLTVVHQDWLNGKEYKCKVSNKALPAPEEKTISKTKGQPREPQVYTLPPSREEMTKNQVSLTCLVKGFYPSDIAVEWESNGQPENNYKTTPPMLDSDGSFFLYSKLTVDKSRWQQGNVFSCSVMHEALHNHYTQKSLSLSPGK
chain 2: DIVMTQSPATLSLSPGERATLSCRSSKSLQNVNGNTYLYWFQQKPGQSPQLLIYRMSNLNSGVPDRFSGSGSGTEFTLTISSLEPEDFAVYYCMQHLEYPITFGAGTKLEIKRTVAAPSVFIFPPSDEQLKSGTASVVCLLNNFYPREAKVQWKVDNALQSGNSQESVTEQDSKDSTYSLSSTLTLSKADYEKHKVYACEVTHQGLSSPVTKSFNRGEC
B1: the “binding percentage (average across 3 trials)” value in test [1] is about 70%; in test [2], over 80%.
